Experimental data taken from patent US20200199241A1 (Chugai, published 2020).
Where a chain is given by its changes, count along the chain named. Names may count otherwise. Like-named read-outs stand apart in the source and are kept apart here. One block for each binder: values may come before it.

Key:
[1] = molecular target: T1, FcγRIIb (human, UniProt P31994 43-217, limits assumed); assay: ratio of SPR KDs; reference IL6R-B3/IL6R-L
T1 construct: SPR analyte; also called FcγIIB; CD32
T1 sequence: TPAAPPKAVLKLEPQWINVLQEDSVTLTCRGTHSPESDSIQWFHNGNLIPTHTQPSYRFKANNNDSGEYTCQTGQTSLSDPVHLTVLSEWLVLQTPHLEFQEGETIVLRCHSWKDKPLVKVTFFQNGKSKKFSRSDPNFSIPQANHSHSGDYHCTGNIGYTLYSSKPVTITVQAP

[2] = molecular target: T2, FcγRIa (human, UniProt P12314 16-292, limits assumed); assay: SPR (Biacore), antibody captured, FcγR analyte
T2 construct: SPR analyte; also called CD64

[3] = molecular target: T3, FcγRIIa type R (human, UniProt P12318 36-217); assay: SPR (Biacore), antibody captured, FcγR analyte
T3 construct: SPR analyte; also called FcγRIIaR; FcγRIIa(R)
T3 chain: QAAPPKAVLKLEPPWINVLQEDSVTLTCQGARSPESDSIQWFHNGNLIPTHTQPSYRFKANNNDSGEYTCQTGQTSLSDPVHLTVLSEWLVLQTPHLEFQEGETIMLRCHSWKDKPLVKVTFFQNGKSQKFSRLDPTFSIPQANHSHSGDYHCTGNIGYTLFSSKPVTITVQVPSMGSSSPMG

[4] = molecular target: T4, FcγRIIa type H (human, UniProt P12318 36-217); assay: SPR (Biacore), antibody captured, FcγR analyte
T4 construct: SPR analyte; also called FcγRIIaH
T4 sequence: T3 chain with R133H

[5] = molecular target: T1, FcγRIIb; assay: SPR (Biacore), antibody captured, FcγR analyte
[6] = molecular target: T5, FcγRIIIa type V (human, UniProt P08637 17-208, limits assumed); assay: SPR (Biacore), antibody captured, FcγR analyte
T5 construct: SPR analyte; allotype V158 was used here; also called FcγRIIIaV; FcγRIIIa(V)

[7] = molecular target: T1, FcγRIIb; assay: ratio of SPR KDs: KD for FcγRIIaH over KD for FcγRIIb
[8] = molecular target: T1, FcγRIIb; assay: ratio of SPR KDs: KD for FcγRIIaR over KD for FcγRIIb
[9] = molecular target: T4, FcγRIIa type H; assay: ratio of SPR KDs; stronger receptor here FcγRIIaH; reference IL6R-B3/IL6R-L (FcγRIIaH)
[10] = molecular target: T6, mouse FcγRI (mouse, UniProt P26151 25-297); assay: SPR (Biacore T100/T200): FcγR injected over the antibody held by mouse FcRn immobilised on a CM4 chip (simultaneous binding), pH 7.4, 25 C
T6 construct: bought; also called mFcgRI; mFcgR 1
T6 sequence (looked up): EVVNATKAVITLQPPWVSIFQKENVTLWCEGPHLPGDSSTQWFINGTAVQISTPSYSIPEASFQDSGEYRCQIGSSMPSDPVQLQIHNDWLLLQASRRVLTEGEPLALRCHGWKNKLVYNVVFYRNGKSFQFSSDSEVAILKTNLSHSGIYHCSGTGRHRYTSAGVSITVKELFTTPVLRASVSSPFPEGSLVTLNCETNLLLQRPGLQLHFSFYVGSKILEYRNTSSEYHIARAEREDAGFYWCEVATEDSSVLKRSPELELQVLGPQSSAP

[11] = molecular target: T7, mouse FcγRIIb (mouse, UniProt P08101 30-207, limits assumed); assay: as above
T7 construct: bought; also called mFcgRIIb; mFcgR IIb
T7 sequence (looked up): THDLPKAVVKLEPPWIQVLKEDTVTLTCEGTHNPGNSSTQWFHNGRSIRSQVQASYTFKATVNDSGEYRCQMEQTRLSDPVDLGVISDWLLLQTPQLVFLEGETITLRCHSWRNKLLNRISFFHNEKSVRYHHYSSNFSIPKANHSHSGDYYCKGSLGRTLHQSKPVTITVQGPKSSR

[12] = molecular target: T8, mouse FcγRIII (mouse, UniProt P08508 31-215); assay: as above
T8 construct: bought; also called mFcgRIII; mFcgR III
T8 sequence (looked up): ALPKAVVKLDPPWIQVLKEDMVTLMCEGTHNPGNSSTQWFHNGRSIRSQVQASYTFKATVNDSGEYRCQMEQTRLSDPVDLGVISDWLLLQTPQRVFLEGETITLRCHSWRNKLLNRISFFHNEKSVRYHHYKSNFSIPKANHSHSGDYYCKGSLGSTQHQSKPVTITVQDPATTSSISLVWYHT

[13] = molecular target: T9, mouse FcγRIV (mouse, UniProt A0A0B4J1G0 21-203); assay: as above
T9 construct: bought; also called mFcgRIV; mFcgR IV; the vendor's purification tag not given
T9 sequence: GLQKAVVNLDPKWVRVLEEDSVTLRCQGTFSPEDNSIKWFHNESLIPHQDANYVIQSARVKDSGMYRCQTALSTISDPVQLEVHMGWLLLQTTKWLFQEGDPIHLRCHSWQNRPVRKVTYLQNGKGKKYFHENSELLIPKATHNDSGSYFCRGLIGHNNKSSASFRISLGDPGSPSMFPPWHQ

[14] = molecular target: T10, human FcRn (soluble human FcRn complexed with β2-microglobulin) (human, UniProt P61769 21-119, limits assumed); assay: SPR, antibody captured by Protein L, human FcRn as analyte, pH 7.0, 25 C
T10 construct: also called hFcRn

[15] = molecular target: T7, mouse FcγRIIb; assay: SPR, antibody captured by Protein L, mouse FcγR as analyte, pH 7.4, 25 C; parameters: unit not given here
[16] = molecular target: T8, mouse FcγRIII; assay: as above; parameters: unit not given here
[17] = molecular target: T9, mouse FcγRIV; assay: as above; parameters: unit not given here
[18] = molecular target: T10, human FcRn (soluble human FcRn …); assay: SPR, antibody captured by Protein L, human FcRn as analyte, pH 7.0, 25 C; remark: listed apart in the source
[19] = molecular target: T11, human FcγRIIIa(V) (human, UniProt P08637 17-208, limits assumed); assay: SPR, antibody captured by Protein L, human FcγR as analyte, pH 7.4, 25 C;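 further: biacore T100 or T200 with Protein L amine-coupled on a CM4 chip, FcγRs diluted in ACES saline with polysorbate 20, buffer-only injection as blank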
T11 construct: also called hFcgRIIIa(V); allotype V158

[20] = molecular target: T12, human FcγRIa (human, UniProt P12314 16-292, limits assumed); assay: as above
T12 construct: also called hFcgRIa; hFcgRI

[21] = molecular target: T13, human FcγRIIa(R) (human, UniProt P12318 36-217); assay: as above
T13 construct: also called hFcgRIIa(R); FcγRIIa type R
T13 chain: T3 chain

[22] = molecular target: T14, human FcγRIIa(H) (human, UniProt P12318 36-217); assay: as above
T14 construct: also called hFcgRIIa(H); FcγRIIa type H
T14 sequence: T3 chain with R133H

T2 sequence (P12314 16-292 limits assumed): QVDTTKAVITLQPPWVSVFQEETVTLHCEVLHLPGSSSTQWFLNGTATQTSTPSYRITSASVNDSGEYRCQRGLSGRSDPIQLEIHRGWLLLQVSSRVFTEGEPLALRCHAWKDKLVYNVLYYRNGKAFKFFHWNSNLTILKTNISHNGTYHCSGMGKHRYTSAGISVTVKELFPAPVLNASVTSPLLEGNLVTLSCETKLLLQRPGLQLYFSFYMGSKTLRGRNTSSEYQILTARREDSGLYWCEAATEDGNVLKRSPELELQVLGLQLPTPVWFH
T5 sequence (P08637 other isoform, or with tags, fused parts or gaps limits assumed): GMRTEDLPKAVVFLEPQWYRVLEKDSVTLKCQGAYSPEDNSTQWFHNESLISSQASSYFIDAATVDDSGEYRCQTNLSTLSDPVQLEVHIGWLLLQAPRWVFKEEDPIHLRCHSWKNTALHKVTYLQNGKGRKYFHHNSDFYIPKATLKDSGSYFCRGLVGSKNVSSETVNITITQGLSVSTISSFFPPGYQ
T12 sequence (P12314 16-292 limits assumed): as the sequence (P12314 16-292 limits assumed) above
T11 sequence (P08637 other isoform, or with tags, fused parts or gaps limits assumed): as the sequence (P08637 other isoform, or with tags, fused parts or gaps limits assumed) above

KD(IIb) of the parent polypeptide/KD(IIb) of altered polypeptide [1]: 1 | Kd [2]: 0.42 nM | Kd [3]: 1100 nM | Kd [4]: 770 nM | Kd [5]: 3100 nM | Kd [6]: 330 nM | KD(IIaH)/KD(IIb) [7]: 0.2 | KD(IIaR)/KD(IIb) [8]: 0.3 | KD of the stronger of FcγRIIaR/FcγRIIaH binding of the variant / that of the parent polypeptide [9]: 1
B1: IL6R-B3/IL6R-L (antibody, human IgG1)
heavy: not shown
light: DIQMTQSPSSLSASVGDRVTITCRASQDISSYLNWYQQKPGKAPKLLIYYTSRLHSGVPSRFSGSGSGTDFTFTISSLQPEDIATYYCQQGNTLPYTFGQGTKVEIK
notes: IL6R-G1d with K439E (EU numbering); also called parent polypeptide

KD(IIb) of the parent polypeptide/KD(IIb) of altered polypeptide [1]: 1.2 | Kd [2]: 0.32 nM | Kd [3]: 1000 nM | Kd [4]: 670 nM | Kd [5]: 2600 nM | Kd [6]: 350 nM | KD(IIaH)/KD(IIb) [7]: 0.3 | KD(IIaR)/KD(IIb) [8]: 0.4 | KD of the stronger of FcγRIIaR/FcγRIIaH binding of the variant / that of the parent polypeptide [9]: 0.9
B2: IL6R-G1d/IL6R-L (antibody, human IgG1)
heavy: not shown
light: B1 light
notes: Anti-human IL-6 receptor antibody with the G1d constant region; also called IgG1 (IL6R-G1d)

binding result [10]: binds | binding result [11]: binds | binding result [12]: binds | binding result [13]: binds
B3: Fv4-IgG1-F20 (VH3-IgG1-F20 and VL3-CK) (antibody)
heavy: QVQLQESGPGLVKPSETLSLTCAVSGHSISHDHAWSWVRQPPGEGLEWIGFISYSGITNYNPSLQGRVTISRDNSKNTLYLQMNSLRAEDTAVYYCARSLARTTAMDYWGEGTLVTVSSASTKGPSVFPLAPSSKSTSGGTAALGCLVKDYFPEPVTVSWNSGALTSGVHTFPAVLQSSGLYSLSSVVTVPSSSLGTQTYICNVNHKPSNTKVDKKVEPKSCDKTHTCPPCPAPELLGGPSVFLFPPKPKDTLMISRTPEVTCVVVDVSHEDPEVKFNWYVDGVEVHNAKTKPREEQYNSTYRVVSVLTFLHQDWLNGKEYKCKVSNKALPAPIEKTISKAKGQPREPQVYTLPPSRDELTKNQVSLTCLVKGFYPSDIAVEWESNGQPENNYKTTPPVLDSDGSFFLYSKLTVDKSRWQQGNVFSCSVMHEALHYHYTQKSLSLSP
light: DIQMTQSPSSLSASVGDSVTITCQASTDISSHLNWYQQKPGKAPELLIYYGSHLLSGVPSRFSGSGSGTDFTFTISSLEAEDAATYYCGQGNRLPYTFGQGTKVEIERTVAAPSVFIFPPSDEQLKSGTASVVCLLNNFYPREAKVQWKVDNALQSGNSQESVTEQDSKDSTYSLSSTLTLSKADYEKHKVYACEVTHQGLSSPVTKSFNRGEC
notes: copies: 2 + 2

Kd [14]: 11 nM | binding amount [15]: 19.2 | binding amount [16]: 532 | binding amount [17]: 85.6 | Kd [18]: 11 nM | BINDING AMOUNT (RU) [19]: 61.6 RU | BINDING AMOUNT (RU) [20]: 265 RU | BINDING AMOUNT (RU) [21]: 11.7 RU | BINDING AMOUNT (RU) [22]: 11.4 RU
B4: antibody with VH3-IgG1-F1326 heavy chain and L(WT)-CK light chain (antibody)
heavy: QVQLQESGPGLVKPSETLSLTCAVSGHSISHDHAWSWVRQPPGEGLEWIGFISYSGITNYNPSLQGRVTISRDNSKNTLYLQMNSLRAEDTAVYYCARSLARTTAMDYWGEGTLVTVSSASTKGPSVFPLAPSSKSTSGGTAALGCLVKDYFPEPVTVSWNSGALTSGVHTFPAVLQSSGLYSLSSVVTVPSSSLGTQTYICNVNHKPSNTKVDKKVEPKSCDKTHTCPPCPAPEAAGGPSVFLFPPKPKDVLYISRTPEVTCVVVDVSHEDPEVKFNWYVDGVEVHNAKTKPREEQYNSTYRVVSVLQPLHADWLNGKEYKCKVSNKALPAPIEKTISKAKGQPREPQVYTLPPSRDELTKNQVSLTCLVKGFYPSDIAVEWESNGQPENNYKTTPPVLDSDGSFFLYSKLTVDKSRWQQGNVFSCSVMHEALHYHVTQKSLSLSP
light: not shown
notes: L234A/L235A/T250V/M252Y/T307Q/V308P/Q311A/N434Y/Y436V; copies: 2 + 2
